Assay results: patent US20200140543A1 (Memorial Sloan Kettering, published 2020)

T1: Recombinant human A33 protein (human, UniProt Q99795 22-235, limits assumed)
T1 construct: Bought protein, immobilized on the sensor chip by amine coupling; also called human A33 antigen; A33 glycoprotein antigen
T1 sequence (looked up): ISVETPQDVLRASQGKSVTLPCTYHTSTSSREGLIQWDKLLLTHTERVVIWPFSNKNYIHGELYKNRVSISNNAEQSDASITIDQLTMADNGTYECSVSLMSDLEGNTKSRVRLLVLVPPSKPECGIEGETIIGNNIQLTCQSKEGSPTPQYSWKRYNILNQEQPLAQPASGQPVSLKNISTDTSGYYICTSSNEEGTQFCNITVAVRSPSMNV


Biological target: T1, Recombinant human A33 protein
Test: SPR, Biacore T100; A33 immobilized by amine coupling, antibody as analyte, bivalent analyte model
Protocol: Binding affinity was measured by Biacore T100.
Biacore T100 Biosensor, CMS sensor chip, and related reagents were purchased from GE Healthcare. Recombinant human A33 protein was purchased from Novoprotein. A BSA-(Y)-DOTA-Bn conjugate was prepared as described (Cheal et al., supra). A33 and DOTA antigens were immobilized using the Amino Coupling kit (GE Healthcare). Purified bispecific antibodies and control antibodies were analyzed, and data were fit to a bivalent analyte model using the Biacore T100 evaluation software as described (Cheal et al., supra).

Binder	Kd [nM]	koff [s⁻¹]	kon [M⁻¹ s⁻¹]
huA33-C825 bispecific antibody (humanized A33 IgG1-murine C825 scFv) (bispecific antibody, IgG-scFv format: the anti-DOTA-Bn scFv C825 is linked to the carboxyl end of the huA33 light chain; also called anti-A33/anti-DOTA-Bn (metal) bispecific antibody) heavy: not shown light: DIQMTQSPSSLSVSVGDRVTITCKASQNVRTVVAWYQQKPGLAPKTLIYLASNRHTGVPSRFSGSGSGTDFTFTISSLQPEDIATYFCQQHWSYPLTFGQGTKVEVKRTVAAPSVFIFPPSDEQLKSGTASVVCLLNNFYPREAKVQWKVDNALQSGNSQESVTEQDSKDSTYSLSSTLTLSKADYEKHKVYACEVTHQGLSSPVTKSFNRGECGGGGSGGGGSASHVKLQESGPGLVQPSQSLSLTCTVSGFSLTDYGVHWVRQSPGKGLEWLGVIWSGGGTAYNTALISRLNIYRDNSKNQVFLEMNSLQAEDTAMYYCARRGSYPYNYFDAWGCGTTVTVSSGGGGSGGGGSGGGGSQAVVIQESALTTPPGETVTLTCGSSTGAVTASNYANWVQEKPDHCFTGLIGGHNNRPPGVPARFSGSLIGDKAALTIAGTQTEDEAIYFCALWYSDHWVIGGGTRLTVLG	63.5	0.00581	91500
huA33-IgG1 (monospecific humanized antibody A33) (antibody, V domains shown) VH: EVQLVESGGGLVKPGGSLRLSCAASGFAFSTYDMSWVRQAPGKRLEWVATISSGGSYTYYLDSVKGRFTISRDNAKNSLYLQMNSLRAEDTAVYYCAPTTVVPFAYWGQGTLVTVSS VL: DIQMTQSQSSLSTSVGDRVTITCKASQNVRTVVAWYQQKPGKSPKTLIYLASNRHTGVPSRFSGSGSGTEFTLTISNVQPEDFADYFCLQHWSYPLTFGSGTKLEIKR	1.71	0.00105	614000
